How the values were obtained:
[1] = target: T1, human PD-L1 (ELISA antigen, construct not stated) (human, UniProt Q9NZQ7 19-238, limits assumed); assay: ELISA of Fab clones with human PD-L1 as antigen
T1 construct: The construct is not described; also called hu PD-L1

[2] = target: T2, human PD-L1 coupled to human Fc (human, UniProt Q9NZQ7 19-239, limits assumed); assay: ELISA on coated human PD-L1-Fc, Fab detected with anti-human Fab-HRP, absorbance 450-670 nm
T2 construct: also called human PD-L1-Fc; not shown: human Fc
T2 sequence (Q9NZQ7 19-239 limits assumed): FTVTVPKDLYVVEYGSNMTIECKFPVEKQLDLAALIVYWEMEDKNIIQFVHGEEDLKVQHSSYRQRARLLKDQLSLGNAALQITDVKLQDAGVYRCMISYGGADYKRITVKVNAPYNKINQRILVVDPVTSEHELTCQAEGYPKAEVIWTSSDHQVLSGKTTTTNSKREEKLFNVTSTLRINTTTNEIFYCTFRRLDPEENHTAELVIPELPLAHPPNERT
Protocol: (§1) After 90 minutes at room temperature under agitation and extensive washes, a goat anti-human Fab antibody coupled to HRP was added. One hour later, plates were washed and TMB substrate added. The reaction was stopped with 1M HCl and optical density measured at 450 nm with a reference at 670 nm.

[3] = target: T3, murine PD-L1 coupled to human Fc (murine, UniProt Q9EP73 19-238, limits assumed); assay: ELISA on coated murine PD-L1-Fc, Fab detected with anti-human Fab-HRP, absorbance 450-670 nm
T3 construct: also called murine PD-L1-Fc; mouse PD-L1 coupled to Fc; not shown: human Fc
T3 sequence (Q9EP73 19-238 limits assumed): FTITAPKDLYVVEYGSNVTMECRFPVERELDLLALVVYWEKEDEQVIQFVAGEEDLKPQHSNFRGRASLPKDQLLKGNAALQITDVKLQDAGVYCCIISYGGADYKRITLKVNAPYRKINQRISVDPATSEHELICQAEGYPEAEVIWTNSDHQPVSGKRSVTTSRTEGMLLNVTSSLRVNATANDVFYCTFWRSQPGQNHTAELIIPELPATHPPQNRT
Protocol: as §1

[4] = target: biotinylated human PD-L1 (human, UniProt Q9NZQ7 19-238, limits assumed, biotinylated (site not stated)); assay: blocking ELISA: biotinylated human PD-L1 pre-incubated with Fab, then added to coated human PD-1-Fc (blocked partner), streptavidin-HRP
Sequence of biotinylated human PD-L1 (Q9NZQ7 19-238 limits assumed): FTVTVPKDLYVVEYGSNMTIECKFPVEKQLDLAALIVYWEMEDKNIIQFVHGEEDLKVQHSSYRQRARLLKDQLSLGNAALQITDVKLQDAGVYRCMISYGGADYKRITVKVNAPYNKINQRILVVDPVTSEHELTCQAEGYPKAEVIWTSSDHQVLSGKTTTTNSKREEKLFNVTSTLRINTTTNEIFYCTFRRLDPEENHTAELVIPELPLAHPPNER

[5] = target: biotinylated murine PD-L1 (murine, UniProt Q9EP73 19-238, limits assumed, biotinylated (site not stated)); assay: blocking ELISA: biotinylated murine PD-L1 pre-incubated with Fab, then added to coated murine PD-1-Fc (blocked partner), streptavidin-HRP
Sequence of biotinylated murine PD-L1 (Q9EP73 19-238 limits assumed): as the sequence (Q9EP73 19-238 limits assumed) above

[6] = target: T2, human PD-L1 coupled to human Fc; assay: SPR (Proteon XPR36), human PD-L1-Fc immobilised, crude H12 Fab extract flowed
[7] = target: T3, murine PD-L1 coupled to human Fc; assay: SPR (Proteon XPR36), mouse PD-L1-Fc immobilised, crude H12 Fab extract flowed
[8] = target: T2, human PD-L1 coupled to human Fc; assay: SPR, Proteon XPR36, human PD-L1-Fc immobilised, crude H12 Fab extract flown over
[9] = target: T3, murine PD-L1 coupled to human Fc; assay: SPR, Proteon XPR36, murine PD-L1-Fc immobilised, crude H12 Fab extract flown over

T1 sequence (Q9NZQ7 19-238 limits assumed): as the sequence (Q9NZQ7 19-238 limits assumed) above

Row | Binder | binding result [1] | binding result [2] | binding result [3] | binding result [4] | binding result [5] | Kd [6] | Kd [7] | koff [8] | kon [8] | koff [9] | kon [9] | IC50 (read off the curve) [4] | IC50 (read off the curve) [5]
1 | anti-PD-L1 antibody clone A1, Fab format (Fab, V domains shown, From a human phage display library and tested as Fab; the Fab constant domains are not) VH: QVQLQQSGAEVKKPGSSVKVSCKASGGTFSSYAISWVRQAPGQGLEWMGRIIPILGIANYAQKFQGRVTITADKSTSTAYMELSSLRSEDTAVYYCARGGSYGSLYAFDIWGQGTMVTVSS VL: QSVLTQPPSVSAAPGQRVSISCSGRSSNIASHDVFWYQQLPGTAPKIVMYETNKRPWGIPDRFSGSKSGTSATLDIAGLQTGDEADYYCGAWDSGLTGMLFGGGTKVTVL | binds | binds | binds | binds | binds | – | – | – | – | – | – | – | –
2 | anti-PD-L1 antibody clone H12, Fab format (Fab, V domains shown, Tested as Fab; the SPR used a crude Fab extract; also called crude H12 Fab extract) VH: EVQLVQSGAEVKKPGASVKVSCKASGGTFSSYAISWVRQAPGQGLEWMGRIIPILGIANYAQKFQGRVTITADKSTSTAYMELSSLRSEDTAVYYCARSGHGYSYGAFDYWGQGTL VL: QSVLTQPPSVSGAPGQRVTISCTGSSSNIGAGYDVHWYQQLPGTAPKLLIYGNSNRPSGVPDRFSGSKSGTSASLAITGLQAEDEADYYCQSYDSSLSGSYVVFGGGTKLTVL | – | – | – | – | – | 0.313 nM | 3.04 nM | 0.000471 s⁻¹ | 1.5e+06 M⁻¹ s⁻¹ | 0.00407 s⁻¹ | 1.34e+06 M⁻¹ s⁻¹ | ~20 nM | ~4 nM
